We go through two proteins from patent US20200224186A1 (University of Washington, published 2020).

Data set [1] concerns the molecule itself. Description: size exclusion chromatography and negative stain EM, self-assembly. (In general: SEC sorts molecules by how far they enter the pores of the column.)
Data set [2] deals with the molecule itself. Description: electron cryo-tomography of released vesicles, self-assembly.

Changes are numbered by the printed parent chain. In names and notes the source's numbering stands.

B1: Myr-I3-01-myc-p6 (designed binder)
chain: MGARASGSKSGSGSDSGSKMEELFKKHKIVAVLRANSVEEAKKKALAVFLGGVHLIEITFTVPDADTVIKELSFLKEMGAIIGAGTVTSVEQCRKAVESGAEFIVSPHLDEEISQFCKEKGVFYMPGVMTPTELVKAMKLGHTILKLFPGEVVGPQFVKAMKGPFPNVKFVPTGGVNLDNVCEWFKAGVLAVGVGSALVKGTPVEVAEKAKAFVEKIRGCTEQKLISEEDLQSRPEPTAPPEESFRSGVETTTPPQKQEPIDKELYPLTSLRSLFGNDPSSQ
modifications: N-terminal myristoylation motif (6 N-terminal amino acids of HIV Gag); not myristoylated when produced in E. coli
notes: Forms icosahedral assemblies like I3-01; also called Myr-I3-01-p6
Take B1: the binding result in data set [1] is on record as “binds”.

B2: EPN-01 (designed binder)
chain: B1 chain with M20I
modifications: N-terminal myristoylation motif (6 N-terminal amino acids of HIV Gag)
notes: Every subunit bears the M domain; also called Myr1-12GS-I3-01(M3I)-myc-Late1
Take B2: in data set [2], the binding result was “binds”.
